The DeepSol protein solubility set

test: soluble on expression in E. coli; label from the status in PepcDB or PDB records

Sequence | soluble on expression in E. coli
TFFTATDGNHGRGVAWTANKLGQKSVVLMPKGSSEFRLNKIKGEGADASITDLNYDDAVRLANDYAEADDHGVMVQDTAWDGYEEIPAWIMQGYGTMAQEAIEQLKEYGVDRPTHVFVQAGVGSLAGAVQGYVASIYDECPITVVVEADEADCYYKSAEAGDGKPRFVGGDMPTIMAGLACGEPNTIGFEVLKNHAAAFVSAPDWVSAKGMRTLGNPLNGDEKVISGESGAVTTGLLVAAMEREDLADLRKDLKLDENSRILLISTEGDT | not soluble
MRIDPFKLAHWMNARKYTAAQTADLAGLPLDDLRRLLGDEANEPDPAAATALAEALSVEPSQLAADAHRNLTVVHKSAEEMHASRRPIQRDGIHFYNYYTLAAPEGRVAPVVLDILCPSDRLPALNNGHLEPAITVNLGPGDINGRWGEEITPQTWRVLHANHGGDRWITGDSYVEPSYCPHSYSLAGDAPARIVSYTAQSNISPLMTEANNWSTGAFEEALKALSGKVSAGSVLDLFLARRAHTRTSAAEAAGVPPADLEAALRSPASETGLTVLRTLGRALGFDYRVLLPADDQHDGVGKTWTTIEDSRRSRRTFGTYEAASMASAAHLPDLVGSFLRVDADGRGADLIDHAENHYVVTEGRLTLEWDGPDGPASVELEPDGSAWTGPFVRHRWHGTGTVLKFGSGAHLGYQDWLELTNTFEPAATLRRGRRDLAGWGYDN | soluble
MAHHHHHHMPPQRQCSHCEKEKAVLKRPRNGKLLCQRCFFNLFEAEVHETIMKEKLFKPGDIVACGASGGKDSTVLIHLMKLLNEQHEYGIQLLLLSIDEGIAGYRDDSLKTVHRNAEVYNLPLRVLSYKELYGWTMDEVVKVTGLRSSCTYCGVFRRQALDRGAAMLGATKVVTGHNADDLAETILMNILRGDLPRLSRCTSAITSGESLLPRVKPLKYAYEKEIVLYAHFKKLDYFTTECTYSKEAFRSEARTLLKNIEILQPRCILDTIRTGEQLRVKEQECATENPPSACTRCGYVTSQSLCRACVLLQGLNMNGPAVCVREQPQPQQQQQQQNVEVEGQ | not soluble
MRRRENMDVNKAIRTAVDTGKVILGSKRTIKFVKHGEGKLVVLAGNIPKDLEEDVKYYAKLSNIPVYQHKITSLELGAVCGKPFPVAALLVLDEGLSNIMELVEKKEGGE | soluble
MKKAVVVFSGGQDSTTCLVQALKEFDEVHAITFDYGQRHKLEIEVAQKIAKDLGVKAHKVMDVGLLNELAISSLTRDDIPVSHELQENGLPNSFVPGRNILFLTLAGIYAYQIGADTVITGVCETDFSGYPDCRDDFVKSMNTALVKGMDRALTIKTPLMWLNKAETWALADQYNALQLVRENTLTCYNGIIGDGCGDCPSCDLRKAGLDEYLNNKDAVMKSLVQKQESEGL | not soluble
MSLNRLDVMILKILAEADRPMGSGRIAELIEERFGEKYSTRSIRYRLQKMEERGLIRRVRRNDRVVGAEITEWGLTMLKTETSSERVGMYISLIEEMAYRCSFDPEVMKGKVVCNISVVKREHLDDFLDAVVETYRAGISPSPLVAVKEDLSDHDVEVGEDEVAVLTVCSVTIDGVLINRGIPVTPVCGGLLYLEDGEPLGMQEYIKYEGSTVDPLHVFVAKGMTQVERVLETGTGLVPANVRYVPWAALEDVEHVERELEKADIRGIVDVPKVEGEILGIPLPPRSLGIVAYGGLVPVALLEERGISTRTYPTRTLVEYSSLEDARRYEGHHHHHH | soluble
MRLRSMTKVLVLGARFGGLSAAYALKRLAGNKAEIKVINNTRFSYFRPALPHVATGVINENDVMVDLTKALPEKRINFQQGTVEKIDASGGLVYYTKPDGDKAEEDYDYLIIALGAHLGTELVKGWDKYGYSVCELDYALKLREKLKDFKGGTIAIGSGLFYQGKSPKPKVPENYVPVADAACEGPIFEMSLMLSGYFKKKGMLNKVKFVVFSPGEYLSDLSTMSRKIVREMYKQMGIELVDNFRIKEIRENEIADEAGKTIKADLTILIPPYTGNPALKNSTPDLIDDGGFVPTDLNMVSINYDNVYAVGDANSLTVPKLGYLAVKTGNIAAQHLATRLGVQVKVDQYYPTIICVADNPFEGFGIAVKDDTWYGGTTSIAAPSPINHIKKELFHKYFIWTKGDMALEKFLASWLEHHHHHH | soluble
GPGSMQIRRATMEDMYQMQHCNLRCLPENYNLRYYFYHILSWPQLLYVQEDYNRNIVGYVLAKMEDEEKPANIHGHITSIAVLRTHRRLGIASRVMRASMKEMEKEYDANYCSLHVRKTNDAALHLYQETLGFRCANVEKGYYVDEEDAFHMKKFFKGPNPGLYVAANRQLVRQQNSAAAAVTGMAALQRNGGTAPPPPPPSSSSAGGQRGENDTADLEKEQLKLVAELLEESNKESGKGRQQKQKQQQQSKGGNKRGKTKK | soluble
